Like-named read-outs stand apart in the source and are kept apart here.
How the values were obtained:
[1] = target: T1, CD3 (Cluster of Differentiation 3 protein), human, on T cells / Jurkat cells (human, UniProt P07766 23-207; P04234 22-171; P09693 23-182); experiment: FACS, Jurkat cells, antibody at 50 µg/ml
T1 construct: whole, on cells; part of the TCR-CD3 complex; also called human CD3
Summary of the method: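 Jurkat cells in PBS + 1% BSA were incubated with humanized Fab-scFv-Fab bispecific antibody dilutions for 1 hour at 4 degrees, then washed. A secondary antibody was applied for 0.5 hours at 4 degrees. Binding was read as fluorescence by flow cytometry.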

[2] = target: T2, GPRC5D (G-protein coupled receptor family C group 5 member D), human, on multiple myeloma cell lines (human, UniProt Q9NZD1 1-345); experiment: cell-based or functional assay
[3] = target: T2, GPRC5D (G-protein coupled receptor …); experiment: FACS, MM.1S cells
Description: (§1) The binding affinities of the generated humanized Fab-scFv-Fab bispecific antibodies were determined by FACS analysis. […] (a) Jurkat cells were washed by Staining Buffer (PBS+1% BSA) in round bottom 96-well plate. [0833] (b) Antibody dilutions and cells were added to each well, incubated at 4 degrees for 1 hour. [0834] (c) Cells were spined down at 300 g for 3 minutes, and the supernatants were discarded. [0835] (d) Cells were washed with Staining Buffer. […] (e) Step (d) was repeated and the cells were incubated for 0.5 hours at 4 degrees with secondary antibody in Staining Buffer. [0837] (f) After incubation, step (d)-(e) were repeated. […] (g) Staining Buffer was added and fluorescence signals were recorded by flow cytometry.
(§2) The binding affinities of the generated humanized Fab-scFv-Fab bispecific antibodies to different multiple myeloma cell lines were evaluated by FACS analysis. The protocol for FACS analysis is identical to that described in Example 3.2, except that different cells were used in this example, i.e., multiple myeloma cell lines (MM.1S, […], L363 and RPMI 8226) were used in this example.

[4] = target: T2, GPRC5D (G-protein coupled receptor …); experiment: cell-based or functional assay; remark: listed apart in the source
[5] = target: T2, GPRC5D (G-protein coupled receptor …); experiment: cell-based or functional assay; remark: listed apart in the source
[6] = target: T2, GPRC5D (G-protein coupled receptor …); experiment: FACS, MOLP-8 cells
Description: as §1, §2

[7] = target: T1, CD3 (Cluster of Differentiation 3 …); experiment: FACS, CD3+ T cells isolated from normal donors
Description: To evaluate the binding affinity of the generated chimeric bispecific antibody to T cells, the isolated CD3⁺ T cells were stained by antibodies and the binding affinity was determined by FACS analysis. The protocol of FACS analysis is described as follows: [0785] (a) CD3⁺ T cells were isolated from normal donors. [0786] (b) The isolated CD3⁺ T cells were washed by Staining Buffer (PBS+1% BSA) in round bottom 96-well plate. […] (c) Antibody dilutions were added to each well and mixed with the CD3+ T cells, incubated at 4 degrees for 1 hour. […] (d) Cells were spined at 300 g for 3 minutes, then the supernatants were discarded. [0789] (e) Cells were washed with Staining Buffer. [0790] (f) Step (d) was repeated, and the cells were incubated with secondary antibody in Staining Buffer for 0.5 hours at 4 degrees. [0791] (g) After incubation, step (d)-(e) were repeated. [0792] (h) Cells were resuspended in Staining Buffer and fluorescence signals were recorded by flow cytometry.

[8] = target: T2, GPRC5D (G-protein coupled receptor …); experiment: cell-based or functional assay; remark: listed apart in the source
GPRC5D on MM.1S cells [9] = target: T3, GPRC5D on MM.1S cells (human, UniProt Q9NZD1 1-345); experiment: cell-based or functional assay
GPRC5D on MM.1S cells [10] = target: T3, GPRC5D on MM.1S cells; experiment: cell-based or functional assay; remark: listed apart in the source
CD3 on Jurkat cells = target: T4, CD3 on Jurkat cells (UniProt P07766 23-207; P04234 22-171; P09693 23-182); experiment: FACS on Jurkat cells
T4 construct: whole, on cells; On the cell, CD3 stands in the TCR-CD3 complex; also called cluster of differentiation 3
Description: as §1
The binding affinities of the generated humanized Fab-scFv-Fab bispecific antibodies were determined by FACS analysis. The ATG-Bis-40E9 described in Example 1 was used as positive control and hIgG1 isotype was used as negative control. The protocol for FACS analysis is described in Example 3.2 above.

GPRC5D on MM.1S cells [11] = target: T3, GPRC5D on MM.1S cells; experiment: FACS on MM.1S cells
Description: as §1
The binding affinities of the generated humanized Fab-scFv-Fab bispecific antibodies were determined by FACS analysis. The ATG-Bis-40E9 was used as positive control and hIgG1 isotype was used as negative control. The protocol for FACS analysis is identical to that described in Example 3.2, except that MM.1S cells were used in this example.

T3 sequence (Q9NZD1 whole entry): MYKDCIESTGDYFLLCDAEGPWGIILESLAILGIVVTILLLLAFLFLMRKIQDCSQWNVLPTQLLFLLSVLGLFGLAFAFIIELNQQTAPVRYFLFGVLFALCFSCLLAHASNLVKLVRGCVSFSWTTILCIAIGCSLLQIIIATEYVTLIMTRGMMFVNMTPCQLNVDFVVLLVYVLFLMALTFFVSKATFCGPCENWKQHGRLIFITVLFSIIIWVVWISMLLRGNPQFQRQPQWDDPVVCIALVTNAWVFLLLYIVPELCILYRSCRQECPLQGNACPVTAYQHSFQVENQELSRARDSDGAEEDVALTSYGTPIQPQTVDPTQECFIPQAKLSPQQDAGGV
T2 sequence (Q9NZD1 whole entry): as above
T1 sequence (P07766 23-207, chain 1 of 3): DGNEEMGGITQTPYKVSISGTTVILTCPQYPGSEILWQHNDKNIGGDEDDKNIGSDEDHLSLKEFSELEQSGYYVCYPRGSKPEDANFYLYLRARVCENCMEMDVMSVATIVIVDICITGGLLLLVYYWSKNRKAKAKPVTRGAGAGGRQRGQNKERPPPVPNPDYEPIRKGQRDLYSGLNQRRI
T1 sequence (P04234 22-171, chain 2 of 3): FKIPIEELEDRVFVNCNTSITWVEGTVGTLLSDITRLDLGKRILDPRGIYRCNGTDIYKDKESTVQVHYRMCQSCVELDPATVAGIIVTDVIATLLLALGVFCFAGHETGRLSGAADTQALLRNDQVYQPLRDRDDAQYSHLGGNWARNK
T1 sequence (P09693 23-182, chain 3 of 3): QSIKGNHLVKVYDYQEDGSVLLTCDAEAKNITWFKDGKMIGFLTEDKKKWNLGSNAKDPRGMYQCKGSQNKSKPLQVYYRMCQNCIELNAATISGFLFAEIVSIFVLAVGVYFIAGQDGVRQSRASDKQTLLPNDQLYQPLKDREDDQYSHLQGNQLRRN
T4 sequence (P07766 23-207, chain 1 of 3): as the sequence (P07766 23-207, chain 1 of 3) above
T4 sequence (P04234 22-171, chain 2 of 3): as the sequence (P04234 22-171, chain 2 of 3) above
T4 sequence (P09693 23-182, chain 3 of 3): as the sequence (P09693 23-182, chain 3 of 3) above

| MFI (50 µg/ml) [1] [MFI] | EC50 (nM), luciferase assay, L363 [2] [nM] | EC50 (nM), luciferase assay, MM.1S [2] [nM] | EC50 (nM), luciferase assay, MOLP-8 [2] [nM] | EC50 (nM), luciferase assay, RPMI8226 [2] [nM] | Top (RLU), luciferase assay, L363 [2] [RLU] | Top (RLU), luciferase assay, MM.1S [2] [RLU] | Top (RLU), luciferase assay, MOLP-8 [2] [RLU] | Top (RLU), luciferase assay, RPMI8226 [2] [RLU] | EC50 (nM), luciferase assay, L363 [4] [nM] | EC50 (nM), luciferase assay, MM.1S [4] [nM] | EC50 (nM), luciferase assay, MOLP-8 [4] [nM] | EC50 (nM), luciferase assay, RPMI8226 [4] [nM] | EC50 [7] [nM] | Binder | IC50 (nM), T-Cell Dependent Cytotoxicity, MM.1S [5] [nM] | IC50 (nM), T-Cell Dependent Cytotoxicity, MOLP-8 [5] [nM] | IC50 (nM), T-Cell Dependent Cytotoxicity, RPMI8226 [5] [nM] | Top (%), T-Cell Dependent Cytotoxicity, MM.1S [5] [%] | Top (%), T-Cell Dependent Cytotoxicity, MOLP-8 [5] [%] | Top (%), T-Cell Dependent Cytotoxicity, RPMI8226 [5] [%] | also measured |
| --- | --- | --- | --- | --- | --- | --- | --- | --- | --- | --- | --- | --- | --- | --- | --- | --- | --- | --- | --- | --- | --- |
| 490 | 0.028 | 0.787 | 0.0186 | 0.117 | 1050 | 3550 | 826 | 776 | 69.4 | 0.739 | 0.374 | 0.071 | 287 | ATG-Bis-40E9 (bispecific antibody, Fab-scFv-Fab (2+1) format: two anti-GPRC5D Fabs, one anti-CD3 scFv; LALA (L234A, L235A, EU); also called chimeric 2+1 bispecific antibody; 108C4C12 Fab x 40-C12-C10-E9 scFv; not shown: CH1; CL; CH2-CH3 with L234A, L235A; heavy chain constant region with L234A, L235A) heavy: EVQLQQSGPELVKPGASVKMSCKASGYTFTSYVIHWVKQKTGQGLEWIGYFNPYNDGTKYNEEFKGKATLTSDKSSNTAYMELNSLTSDDSAVYFCARGGVRRYFDVWGAGTTVTVSS heavy (part 1 of 2): EVQLQQSGPELVKPGASVKMSCKASGYTFTSYVIHWVKQKTGQGLEWIGYFNPYNDGTKYNEEFKGKATLTSDKSSNTAYMELNSLTSDDSAVYFCARGGVRRYFDVWGAGTTVTVSS heavy (part 2 of 2): GGGGSGGGGSEVQLQLSGPELVKPGASVKMSCKASGYTFSSYVIHWVKQKPGQGLEWIGYINPYNDVIKYNEKFKGKATLTSDKSSSTAYMELSSLTSEDSAVYYCARDSYYSYDGFAYWGQGTLVTVSAGGGGSGGGGSGGGGSGGGGSQIVLTQSPAIMSASPGEKVTMTCSASSSVSYMHWYQQKSGTSPKRWIYDTSKLASGVPARFSGSGSGTSYSLTISSMEAEDAATYYCQQWSSNPPTFGGGTKVEIKGGGGSGGGGS light: DIQMTQSPSSLSASLGERVSLTCRASQDIGSNLNWLQQEPDGTIKRLIYATFGLDSGVPKRFSGSRSGSDYSLTISSLESEDFVDYYCQQYASFPYTFGGGTKLEIK | 0.00641 | 0.00607 | 0.0351 | 81.5 | 59 | 9 | EC50 [3]: 11.3 nM; Top (MFI) [3]: 1200 MFI; EC50 [6]: 0.817 nM; Top (MFI) [6]: 958 MFI; Top (MFI) [7]: 1990 MFI; IC50 (nM), T-Cell Dependent Cytotoxicity, L363 [8]: 0.001 nM; IC50 (nM), T-Cell Dependent Cytotoxicity, MM.1S [8]: 0.002 nM; IC50 (nM), T-Cell Dependent Cytotoxicity, MOLP-8 [8]: 0.001 nM; IC50 (nM), T-Cell Dependent Cytotoxicity, RPMI8226 [8]: 0.009 nM |
| 836 | 0.0532 | 0.0397 | 0.021 | 0.0929 | 1260 | 3910 | 1060 | 616 | 44 | 0.334 | 0.756 | 0.047 | 274 | RG6234 (bispecific antibody, human IgG1, kappa, L234A L235A, construct per WO2019154890A1; also called benchmark antibody RG6234 (Roche)) heavy 1: EVQLVESGGGLVQPGRSLKLSCAASGFSFSNYGMAWVRQAATKGLEWVASISTGGGNTYYRDSVKGRFIVSRDNAKNTQYLQMDSLRSEDTATYYCTRHDRGGLYWGQGVMVTVSSASTKGPSVFPLAPSSKSTSGGTAALGCLVEDYFPEPVTVSWNSGALTSGVHTFPAVLQSSGLYSLSSVVTVPSSSLGTQTYICNVNHKPSNTKVDEKVEPKSCDKTHTCPPCPAPEAAGGPSVFLFPPKPKDTLMISRTPEVTCVVVDVSHEDPEVKFNWYVDGVEVHNAKTKPREEQYNSTYRVVSVLTVLHQDWLNGKEYKCKVSNKALGAPIEKTISKAKGQPREPQVCTLPPSRDELTKNQVSLSCAVKGFYPSDIAVEWESNGQPENNYKTTPPVLDSDGSFFLVSKLTVDKSRWQQGNVFSCSVMHEALHNHYTQKSLSLSPGK heavy 2: not shown light 1: DIVMTQAPLSVSVTPGESASISCRSSKSLLHSNGITYVYWYFQKPGKSPQVLIYRMSNLASGVPDRFSGSGSETDFTLKISRVEAEDVGIYHCGQLLENPYTFGAGTELELKRTVAAPSVFIFPPSDRKLKSGTASVVCLLNNFYPREAKVQWKVDNALQSGNSQESVTEQDSKDSTYSLSSTLTLSKADYEKHKVYACEVTHQGLSSPVTKSFNRGEC light 2: EVQLLESGGGLVQPGGSLRLSCAASGFTFSTYAMNWVRQAPGKGLEWVSRIRSKYNNYATYYADSVKGRFTISRDDSKNTLYLQMNSLRAEDTAVYYCVRHGNFGNSYVSWFAYWGQGTLVTVSSRTVAAPSVFIFPPSDEQLKSGTASVVCLLNNFYPREAKVQWKVDNALQSGNSQESVTEQDSKDSTYSLSSTLTLSKADYEKHKVYACEVTHQGLSSPVTKSFNRGEC | 0.019 | 0.00599 | 0.0899 | 77.2 | 53.4 | 8.1 | Top (MFI) [7]: 2550 MFI; IC50 (nM), T-Cell Dependent Cytotoxicity, L363 [8]: 0.007 nM; IC50 (nM), T-Cell Dependent Cytotoxicity, MM.1S [8]: 0.006 nM; IC50 (nM), T-Cell Dependent Cytotoxicity, MOLP-8 [8]: 0.002 nM; IC50 (nM), T-Cell Dependent Cytotoxicity, RPMI8226 [8]: 0.031 nM |
|  |  |  |  |  |  |  |  |  |  |  |  |  |  | Bis-108+147-S54R.H (bispecific antibody) chain 1: EVQLVQSGAEVKKPGASVKVSCKASGYTFTSYVIHWVRQAPGQGLEWMGYFNPYNDGTKYNEEFKGRVTLTSDKSTSTAYMELRSLRSDDTAVYYCARGGVRRYFDVWGQGTTVTVSS chain 2: EVQLVQSGAEVKKPGSSVKVSCKASGYTFTSYWMHWVRQAPGQCLEWMGNINPRSGATNYNEKFKSRVTLTVDKSTSTAYMELSSLRSEDTAVYYCARDRSSQYYFDYWGQGTTVTVSSGGGGSGGGGSGGGGSGGGGSDIVMTQSPDSLAVSLGERATINCKSSQSLLNSRSRKNYLAWYQQKPGQPPKLLIYWASTRESGVPDRFSGSGSGTDFTLTISSLQAEDVAVYYCTQSYTLRTFGCGTKVEIK chain 3: DIQMTQSPSSLSASVGDRVTITCRASQDIGSNLNWLQQKPGKAIKRLIYATFGLDSGVPSRFSGSRSGTDFTLTISSLQPEDFATYYCQQYASFPYTFGGGTKVEIK |  |  |  |  |  |  | IC50 of T-cell dependent cytotoxicity on MM.1S cells (GPRC5D on MM.1S cells [9]): 1.25 nM; Top (%) target cell killing, MM.1S cells (GPRC5D on MM.1S cells [9]): 110%; EC50, Jurkat-NFAT-Luciferase assay in the presence of MM.1S cells (GPRC5D on MM.1S cells [10]): 0.24 nM; Top RLU, Jurkat-NFAT-Luciferase assay in the presence of MM.1S cells (GPRC5D on MM.1S cells [10]): 362 RLU; Top signal (CD3 on Jurkat cells): 293 MFI; EC50 (GPRC5D on MM.1S cells [11]): 3.7 nM; Top signal (GPRC5D on MM.1S cells [11]): 2620 MFI |

Reference: patent US20260193348A1 (ANTENGENE BIOLOGICS, published 2026)
